Results from US20200199207A1 (MABYLON, published 2020).
Residue numbers refer to the chain shown, from its start.

B1: hm4B2 (antibody, V domains shown)
VH: QVQLQEAGPRLVKPSQTLSVTCTVSGASITIGGYYWSWIRQHPGKGLEWMGYIYSNGRTYYNPSLKSRIAMSIDTSKNQFSLKLTSVTAADTAIYFCAREAWETPLWGQGTLITVSS
VL: DIQMTQSPSSLSASVGDRVTITCQANQDIVNSLNWFQHKPGTAPKVLIYDASKLETGVPSRFSGSGSGTHFTFTISGLQPEDFATYFCQQYENLPHTFGQGTKLEIR
notes: also called 4B2 with mouse Fc; hmMAb 4B2
B2: hm32B10 (antibody, V domains shown)
VH: QVQLVQSGAEVKKPGASVKVSCRASGYIFRNFDINWVRQATGQGLEWMGWMSPKSGDTGYAQKFQGRVTMTRDTSINTAYMELSSLTSEDSAVYYCARGVDGTNWGQGTRVTVSS
VL: DIVMTQSPDSLGVSLGERATISCKSSQSILDNSNNKNFIAWFQQKPGQPPKLLIYWASARESGVPDRFSGSGSGTEFTLTINSLQAEDVAVYYCYQYYSTPHTFGQGTKLDLR
notes: also called 32B10 with mouse Fc; hmMAb 32B10
B3: hm2F8 (antibody, V domains shown)
VH: EVQLVESGGGLVKPGGSLRLSCAASGFIFSDYNMNWVRQAPGKGLEWVSSITRSSRTIYYADSVKGRFTISRDNAKNSLHLQMNSLRDADTAVYYCAREDFDVSTGPYYMDVWGNGTTVIVSS
VL: EIVLTQSPGTLSLSPGERATLSCRASQSVSNMFLVWYQQKPGQAPRLLMYGASTRATDIPDRFSGSGSGTDFTLTISRLEPEDFAVYYCQQNGNSPYTFGQGTKLEIK
notes: also called 2F8 with mouse Fc; hmMAb 2F8
B4: hm12G10 (antibody, V domains shown)
VH: EVQLLESGGRLLRPGGSLSLSCVASGFYFGDFGMSWVRQVPGKGLEWVSGIDWSGRSTGYVDSMKGRLTISRDNDKSSLYLQMNDLRGEDTAVYYCARVGRLCSGDSCDSMGAFDLWGQGTMVTVSS
VL: DIQLTQSPSTLSASIGDSVTITCRASQNIDNWLAWYQQKPGKAPRLLIYKASSLGSGVSSKFRGSGFGTEFTLTITSLQPDDFATYYCQKSNGYSRTFGQGTKVDIK
notes: also called 12G10 with mouse Fc; hmMAb 12G10
B5: hm37D5 (antibody, V domains shown)
VH: EEQLVESGGRLLRPGESLSLSCAAVGFNFGDFGMAWVRQPPGKGLEWVAGINWSGHSTGFVDSMKGRLTISRDSAKSSLFLQMNSLRGEDTAVYYCARVGRLCSGDICDSMGAFDLWGQGTMVTVSS
VL: B4 VL with L4M, S18R, N28T, K39R, R45K, K50Q, G55Q, K61R, F67S, D105E
notes: also called 37D5 with mouse Fc; hmMAb 37D5

Legend:
Assay in all cases: ELISA, antigen-coated plate
nAra h 2 = biological target: T1, nAra h 2 (peanut, UniProt Q6PSU2 22-172)
T1 construct: Bought natural allergen; also called naturally extracted Ara h 2
T1 sequence (looked up): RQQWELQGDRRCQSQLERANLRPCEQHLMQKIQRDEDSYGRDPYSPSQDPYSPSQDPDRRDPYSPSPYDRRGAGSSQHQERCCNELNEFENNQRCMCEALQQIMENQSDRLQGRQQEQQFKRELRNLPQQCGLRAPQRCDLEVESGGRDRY
Experimental: (§1) EC50 binding of exemplary anti-peanut antibodies of the present invention to peanut allergens or peanut extract, was determined by ELISA. Serial dilutions of MAbs (from 1000 ng/ml down to 0.0169 ng/ml) were incubated for 2 hours with antigen-coated plates (coating overnight at 4° C. or 1 h at 37° C. with 1 μg/ml antigen in PBS, followed by wash out and blocking with 2% BSA in PBS). The plates were subsequently washed and binding of MAbs was detected with anti-human HRP-conjugated Fc-gamma-specific secondary antibody (Jackson ImmunoResearch, West Grove, Pa., USA). Concentrations of MAb resulting in half of maximal binding to respective antigens (EC50, ng/ml) were calculated using GraphPad Prism 5 software on sigmoidal dose-response curves (variable slope, 4 parameters) obtained by plotting the log of the concentration versus OD450 nm measurements; for the results see FIG. 3 and table 2.

nAra h 1 = biological target: T2, nAra h 1 (peanut, UniProt P43238 85-626)
T2 construct: Bought natural allergen; also called naturally extracted Ara h 1
T2 sequence (looked up): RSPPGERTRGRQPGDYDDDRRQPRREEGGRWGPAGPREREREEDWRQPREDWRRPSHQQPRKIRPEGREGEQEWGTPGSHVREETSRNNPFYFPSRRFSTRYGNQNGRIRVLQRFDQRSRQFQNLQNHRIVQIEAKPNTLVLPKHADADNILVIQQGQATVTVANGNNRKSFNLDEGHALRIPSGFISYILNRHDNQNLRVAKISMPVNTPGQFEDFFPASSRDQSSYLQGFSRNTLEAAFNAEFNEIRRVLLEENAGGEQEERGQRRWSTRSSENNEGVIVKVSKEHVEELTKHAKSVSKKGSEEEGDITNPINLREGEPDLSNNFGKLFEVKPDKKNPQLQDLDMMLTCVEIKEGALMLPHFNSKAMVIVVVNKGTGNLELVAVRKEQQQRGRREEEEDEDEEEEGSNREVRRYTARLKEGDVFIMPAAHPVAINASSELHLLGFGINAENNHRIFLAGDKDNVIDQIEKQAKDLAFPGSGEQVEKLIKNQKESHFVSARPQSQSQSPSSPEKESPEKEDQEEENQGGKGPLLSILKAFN
Experimental: as §1

nAra h 6 = biological target: T3, nAra h 6 (peanut, UniProt Q647G9 22-145)
T3 construct: Bought natural allergen; also called naturally extracted Ara h 6
T3 sequence (looked up): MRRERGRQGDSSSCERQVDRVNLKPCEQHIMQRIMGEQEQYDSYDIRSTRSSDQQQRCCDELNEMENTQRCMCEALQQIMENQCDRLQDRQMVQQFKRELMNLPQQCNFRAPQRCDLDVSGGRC
Experimental: as §1

nAra h 3 = biological target: T4, nAra h 3 (peanut)
T4 construct: Bought natural allergen; also called naturally extracted Ara h 3
Experimental: as §1

Binder	EC50 (nAra h 2) [µg/mL]	EC50 (nAra h 1) [µg/mL]	EC50 (nAra h 6) [µg/mL]	EC50 (nAra h 3) [µg/mL]
B1	0.0102	–	–	–
B2	0.0099	–	–	–
B3	0.0087	–	–	–
B4	0.0067	0.195	0.0278	0.0368
B5	0.0052	0.115	0.034	0.0723
